Test results: the MegaScale stability set (Tsuboyama et al. 2023)

B1: EHEE_rd4_0086 (parent)
chain: EIHIRTNGEEQARKVYKMLAKRNYDVKIEQHNGQWVVTAS

Variants of: B1
Test: folding stability dG (cDNA display proteolysis); higher = more stable
Conditions: PBS, room temperature

Folding stability dG [kJ/mol]: each site, then its substitutions
Y24: T 3.71
Y16: L 6.47, R 4.79, G 7.85, K 4.46, W 5.77, E 3.25, T 1.58, Q 5.77, I 4.07, F 8.06, V 5.14, N -0.397, S 6.26, H 4.31, A 11.6, M 8.97
N23: F 11.7, L 7.28, T 3.64, H 9.81, C 12.1, S 6.47, A 7.06, K 7.01, Q 7, E 4.68, M 7.92, Y 12, G 14.5, W 9.87, V 3.78, P 2.23, I 3.82, R 7.04, D 5.58
K27: D 1.3, E 3.02, A 5.27
R22: G 4.85, E 5.41, S 5.73, H 7.8, Q 7.36, W 9.56, Y 8.56, M 9.7, L 10.2, T 4.86, V 4.21, F 8.54, K 7.75, D 4.52, N 6.08, P -2.36, A 7.69, I 5.47
V26: M 1.41, L 3.47, R -0.741, I 4.58, A 4.59, Y -1.25, S -0.0544, T 2.23, P 4.27, F -0.761, G -0.113, W 0.854
D25: K 9.88, I 9.78, Q 9.32, W 7.89, L 9.26, Y 8.73, F 8.95, R 9.4, G 5.11, N 9.49, A 8.22, H 8.99, V 9.67, P 4.52, M 9.25, E 8.01, T 9.41, S 8.33
G8: Y 9.29, A 7.51, S 13.6, D 12.4, V 8.6, E 8.63, T 12, F 9.28, W 8.43, P 0.925, N 12.3, M 7.85, H 9.24, Q 8.12, I 9.26, R 9.06, L 8.59, K 8.79
K21: V 6.82, Y 6.74, T 6.98, R 8.18, F 7.1, I 7.62, W 6.72, S 8.73, G 7.6, E 8.38, A 10, P -0.996, M 9, N 7.42, D 8.9, L 8.61, H 7.06, Q 8.77, C 11.3
L19: Y 5.67, W 4.27, I 0.452, A -1.34, F 7.21, M 5.31, V -1.47, H -3.24
Q11: V 6.73, D 7, I 7.71, G 4.26, A 7.91, W 8.79, P 1.56, F 8.59, M 8.17, K 5.84, H 8.18, N 5.64, R 6.33, T 6.64, S 6.51, L 7.89, Y 8.38, E 8.78
K14: N 5.4, E 7.05, M 7.83, H 6.39, Y 8.45, A 7.77, D 5.05, W 9.84, Q 7.51, F 7.9, R 8.87, S 5.61, G 3.29, I 7.63, T 5.53, L 7.98, V 5.95
